In paper PMC3749868, “Proteolytic processing of QSOX1A ensures efficient secretion of a potent disulfide catalyst” (Biochemical Journal, 2013):
Blank lines part the entries; values can stand above or below the molecule they belong to.

Experiments:
[1] = biological target: cleaved QSOX1A (soluble product of the proteolytic processing of QSOX1A–V5, without the TM domain and the V5 tag) (human); experiment: SEC; cell lysate (2% DDM) of the QSOX1A–V5 cell line, Sephadex 200 PC3.2/30 column, 50 mM Tris/HCl pH 7.5, 150 mM NaCl, 1 mM EDTA, 0.02% DDM; fractions analysed by Western blot (anti-V5, anti-QSOX1A)
[2] = biological target: cleaved QSOX1A (soluble product of the proteolytic processing of QSOX1A–V5, without the TM domain and the V5 tag) (human); experiment: SEC; protein secreted for 3 h into serum-free medium, concentrated and buffer-exchanged (gel-filtration buffer with 0.03% Triton X-100 by the legend, 0.02% DDM by the methods), S200 PC3.2/30 column; fractions analysed by Western blot
[3] = biological target: QSOX1B–V5 (quiescin sulfhydryl oxidase 1, splice variant B, V5-tagged) (human) (UniProt O00391); experiment: as above
[4] = biological target: the molecule itself; experiment: cross-linking; thiol-specific cross-linker BMH, 0.1 mM, added to intact cells in KHM buffer, 30 min on ice, stopped with 20 mM DTT; lysates analysed by Western blot or by immunoisolation (anti-V5–agarose, then anti-QSOX1A) of radiolabelled proteins; MS of the cross-linked product (results not shown)

stoichiometry N [1]: 2
stoichiometry N [2]: 2
Molecule: cleaved QSOX1A (soluble product of the proteolytic processing of QSOX1A–V5, without the TM domain and the V5 tag) (domain or fragment)

stoichiometry N [3]: 2
Molecule: QSOX1B–V5 (quiescin sulfhydryl oxidase 1, splice variant B, V5-tagged) (from UniProt O00391-2 30-604) (enzyme)

B1: QSOX1A–V5 (quiescin sulfhydryl oxidase 1, splice variant A, V5-tagged, uncleaved) (enzyme, human, UniProt O00391 30-747, looked up)
chain: APRSALYSPSDPLTLLQADTVRGAVLGSRSAWAVEFFASWCGHCIAFAPTWKALAEDVKAWRPALYLAALDCAEETNSAVCRDFNIPGFPTVRFFKAFTKNGSGAVFPVAGADVQTLRERLIDALESHHDTWPPACPPLEPAKLEEIDGFFARNNEEYLALIFEKGGSYLGREVALDLSQHKGVAVRRVLNTEANVVRKFGVTDFPSCYLLFRNGSVSRVPVLMESRSFYTAYLQRLSGLTREAAQTTVAPTTANKIAPTVWKLADRSKIYMADLESALHYILRIEVGRFPVLEGQRLVALKKFVAVLAKYFPGRPLVQNFLHSVNEWLKRQKRNKIPYSFFKTALDDRKEGAVLAKKVNWIGCQGSEPHFRGFPCSLWVLFHFLTVQAARQNVDHSQEAAKAKEVLPAIRGYVHYFFGCRDCASHFEQMAAASMHRVGSPNAAVLWLWSSHNRVNARLAGAPSEDPQFPKVQWPPRELCSACHNERLDVPVWDVEATLNFLKAHFSPSNIILDFPAAGSAARRDVQNVAAAPELAMGALELESRNSTLDPGKPEMMKSPTNTTPHVPAEGPEASRPPKLHPGLRAAPGQEPPEHMAELQRNEQEQPLGQWHLSKRDTGAALLAESRAEKNRLWGPLEVRRVGRSSKQLVDIPEGQLEARAGRGRGQWLQVLGGGFSYLDISLCVGLYSLSFMGLLAMYTYFQAKIRALKGHAGHPAA
notes: human QSOX1A, the long splice variant of QSOX1 with 143 additional C-terminal amino acids including the single-pass TM domain; uncleaved (full-length) form; Membrane-integrated, V5 on the cytosolic side; also called V5-tagged QSOX1A; uncleaved QSOX1A–V5; source: HT1080, stably overexpressing (cross-linking in cells, SEC of lysate); HT1080, transiently co-transfected, in lysate (co-assembly); not …
stoichiometry N [4]: 2
